Our source for the activity values is patent US20220186206, “NOVEL Cas ENZYME AND SYSTEM, AND USE THEREOF” (SHANDONG SHUNFENG BIOTECHNOLOGY CO., LTD., published 2022).

T1: UkCpf1 (in cells) (uncultivated microorganism (metagenome))
T1 chain: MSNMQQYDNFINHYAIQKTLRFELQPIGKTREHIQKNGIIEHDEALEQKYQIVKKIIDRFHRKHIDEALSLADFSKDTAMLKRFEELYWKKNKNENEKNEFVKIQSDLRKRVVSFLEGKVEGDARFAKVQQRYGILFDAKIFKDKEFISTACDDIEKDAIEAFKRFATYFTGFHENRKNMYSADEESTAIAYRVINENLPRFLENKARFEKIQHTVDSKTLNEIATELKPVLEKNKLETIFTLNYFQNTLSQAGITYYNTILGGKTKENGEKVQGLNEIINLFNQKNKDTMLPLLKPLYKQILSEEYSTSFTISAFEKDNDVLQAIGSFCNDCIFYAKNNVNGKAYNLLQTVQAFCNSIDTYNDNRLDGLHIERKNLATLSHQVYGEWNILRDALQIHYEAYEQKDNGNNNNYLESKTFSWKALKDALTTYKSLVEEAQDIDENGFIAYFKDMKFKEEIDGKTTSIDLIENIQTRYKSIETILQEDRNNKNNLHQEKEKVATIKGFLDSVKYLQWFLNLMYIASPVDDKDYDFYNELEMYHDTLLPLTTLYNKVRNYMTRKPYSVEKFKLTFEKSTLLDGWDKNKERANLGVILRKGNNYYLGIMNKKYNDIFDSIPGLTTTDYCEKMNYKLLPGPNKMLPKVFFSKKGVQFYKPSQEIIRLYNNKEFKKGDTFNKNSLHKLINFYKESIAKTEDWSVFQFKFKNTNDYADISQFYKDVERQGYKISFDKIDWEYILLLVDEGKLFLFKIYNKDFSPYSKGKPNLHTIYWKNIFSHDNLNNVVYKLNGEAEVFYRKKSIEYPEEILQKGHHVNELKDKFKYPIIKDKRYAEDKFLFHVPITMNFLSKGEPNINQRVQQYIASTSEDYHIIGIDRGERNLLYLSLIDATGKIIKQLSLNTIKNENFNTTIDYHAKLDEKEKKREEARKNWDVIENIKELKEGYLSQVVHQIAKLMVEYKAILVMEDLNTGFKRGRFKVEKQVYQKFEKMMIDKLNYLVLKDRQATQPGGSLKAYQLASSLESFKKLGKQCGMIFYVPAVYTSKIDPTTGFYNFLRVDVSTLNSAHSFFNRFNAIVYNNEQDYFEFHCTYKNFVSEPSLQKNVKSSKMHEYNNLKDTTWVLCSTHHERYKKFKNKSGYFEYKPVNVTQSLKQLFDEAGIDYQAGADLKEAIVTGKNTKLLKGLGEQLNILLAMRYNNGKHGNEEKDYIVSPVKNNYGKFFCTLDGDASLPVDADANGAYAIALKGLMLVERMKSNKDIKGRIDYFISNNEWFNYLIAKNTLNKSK

B1: gRNA gTGW6-2 (UkCpf1 DR + spacer) ; TGW6-2 target (ssRNA ; dsDNA)
RNA: AUUUCUACUAUUGUAGAUUUUCACCGACAGCAGCAUGAACU
DNA 1: TTTCACCGACAGCAGCATGAACT
DNA 2: AGTTCATGCTGCTGTCGGTGAAA
B2: gRNA gTGW6-3 (UkCpf1 DR + spacer) ; TGW6-3 target (ssRNA ; dsDNA)
RNA: AUUUCUACUAUUGUAGAUUUGACCUGCCAGGCUAUCCUGAU
DNA 1: TTGACCTGCCAGGCTATCCTGAT
DNA 2: ATCAGGATAGCCTGGCAGGTCAA
B3: gRNA gTGW6-5 (UkCpf1 DR + spacer) ; TGW6-5 target (ssRNA ; dsDNA)
RNA: AUUUCUACUAUUGUAGAUCGUGUAGCUGGGGCUGUACGUGU
DNA 1: CGTGTAGCTGGGGCTGTACGTGT
DNA 2: ACACGTACAGCCCCAGCTACACG

In the data set the target is T1, UkCpf1 (in cells). Nature of the data set: cell_activity; rice protoplast; PAM 5'-YYV.
B1 showed an activity of 0.39 % indel.
Under B2 stands 0.57 % indel.
Under B3 stands 0.73 % indel.
